T1: Canine IL-31RA ECD-10His (canine, biotin-labeled in the Octet assay (site not stated))
T1 construct: The ELISA and Octet protocols say only 'IL-31RA' or 'canine IL-31RA'; also called cIL-31RA; canine IL-31 receptor alpha extracellular domain, HIS-tagged
T1 chain: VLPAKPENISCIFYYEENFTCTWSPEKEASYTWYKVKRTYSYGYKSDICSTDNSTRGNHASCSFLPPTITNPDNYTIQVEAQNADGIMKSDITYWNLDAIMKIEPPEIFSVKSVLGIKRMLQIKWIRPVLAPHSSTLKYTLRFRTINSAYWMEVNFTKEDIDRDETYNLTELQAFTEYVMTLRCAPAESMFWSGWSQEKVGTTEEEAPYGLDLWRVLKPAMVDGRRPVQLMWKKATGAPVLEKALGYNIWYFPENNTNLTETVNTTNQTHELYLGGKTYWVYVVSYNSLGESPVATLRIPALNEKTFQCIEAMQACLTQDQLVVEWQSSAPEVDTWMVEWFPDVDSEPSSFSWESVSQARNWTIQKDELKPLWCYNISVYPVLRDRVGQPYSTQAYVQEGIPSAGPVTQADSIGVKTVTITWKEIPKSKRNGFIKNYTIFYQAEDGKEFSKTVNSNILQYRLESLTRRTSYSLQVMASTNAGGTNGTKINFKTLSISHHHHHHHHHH

B1: 74H10 (antibody, V domains shown)
VH: EVQLQQSGPELVKPGASMKIPCKTSGYTFTDYNMDWVKQSHGKSLEWIGHINPNNGGTLYNQKFKDKATLTVDRSSNTAYMELRSLTSEDTAVYYCARWAPLLRQPYWYFDVWGTGTTVTVSS
VL: DIKMTQSPSSMYASLGERVTITCKASQDINSYLNWFQQKPGKSPKTLIYRADRLVDGVPSRFSGSGSGQDYSLTISSLEYEDMGIYYCLQYDEFPLTFGDGTKLELN
notes: Mouse monoclonal antibody from a hybridoma; also called mouse mAb 74H10
B2: 55B3 (antibody, V domains shown)
VH: EVQLQQSGPELVKPGASVKIPCKASGYTFTDYNMDWVKQSHGKSLEWIGHINPNTGGTIYNQKFKGKATLTVDKSSSTAYMDLRSLTSEDTAVYYCARWAQLLRQPYWYFDVWGTGTTVTVSS
VL: DIKMTQSPSSMYASLGERVTITCKASQDINSYFNWVQQKPGKSPKTLIFRANRLVDGVPSRFSGSGSGQDYSLTINSLEYEDMGIYYCLQYDEFPLTFGAGTKLELK
notes: Mouse monoclonal antibody from a hybridoma; also called mouse mAb 55B3
B3: c100H8VH7VL4 (antibody, V domains shown)
VH: EVQLVQSGAEVKKPGASVKVSCKASGYTFTDYNMDWVRQAPGAGLDWIGHINPNNGGILYNQKFKGKATLTADTSTSTAYMELSSLRAGDIAVYYCARWAPLVRQPYWYFDVWGQGTLVTVSS
VL: DIVMTQTPLSLSVSPGETASISCKASQDINSYLNWFRQKPGQSPQLLIYRADRLVDGVPDRFSGSGSGTDFTLRISTVEADDTGVYYCLQYDEFPLTFGAGTKVELKR
notes: Caninized antibody; chains tied by name to c100H8VH7-cIgGBm and c100H8VL4-cCK; also called c100H8VH7L4
B4: c51F8VH3VL6 (antibody, V domains shown)
VH: EVQLVQSGAEVKKPGASVKVSCTASGFNIKNTFIHWVRQAPGAGLDWIGRIDPANGNTKYAPKFQGRATLTADTSTNTAYMQLSSLRAGDIAVYYCARYYYVSSYFDVWGQGTLVTVSS
VL: DIVMTQTPLSLSVSPGETASISCKASQSVTNDVTWFRQKPGQSPQLLIYSASNRYTGVPDRFSGSGSGTDFTLRISTVEADDTGVYYCQQDYSSPWTFGQGTKLEIKR
notes: Caninized antibody; chains tied by name to c51F8VH3-cIgGBm and c51F8VL6-cCK; also called c51F8VH3L6
B5: c51F8VH4VL6 (antibody, V domains shown)
VH: EVQLVQSGAEVVKPGASVKVSCTASGFNIKNTFIHWVRQRPGAGLDWIGRIDPANGNTKYAPKFQGRATLTADTSTNTAYMQLSSLRAGDIAVYYCARYYYVSSYFDVWGTGTLVTVSS
VL: DIVMTQTPLSLSVSPGETASISCKASQSVTNDVTWFRQKPGQSPQLLIYSASNRYTGVPDRFSGSGSGTDFTLRISTVEADDTGVYYCQQDYSSPWTFGQGTKLEIKR
notes: Caninized antibody; chains tied by name to c51F8VH4-cIgGBm and c51F8VL6-cCK; also called c51F8VH4L6
B6: c51F8VH3VL7 (antibody, V domains shown)
VH: EVQLVQSGAEVKKPGASVKVSCTASGFNIKNTFIHWVRQAPGAGLDWIGRIDPANGNTKYAPKFQGRATLTADTSTNTAYMQLSSLRAGDIAVYYCARYYYVSSYFDVWGQGTLVTVSS
VL: DIVMTQTPLSLSVSPGETASISCKASQSVTNDVTWFRQKPGQSPKLLIYSASNRYTGVPDRFSGSGSGTDFTLRISTVEADDTGVYYCQQDYSSPWTFGQGTKLEIKR
notes: Caninized antibody; chains tied by name to c51F8VH3-cIgGBm and c51F8VL7-cCK; also called c51F8VH3L7
B7: Chimeric 224G3 (antibody, V domains shown)
VH: EVQLVESGGDLVKPGGSLKLSCAASGFTFSSYGMSWVRQTPDKRLEWVATISNGGSYTYYPDSVKGRFTISRDNAKNTLYMQMSSLKSEDTAMYYCARNEPPDYWGQGTSVTVSS
VL: QIVLTQSPAIMSASLGERVTMTCTASSSVGSSYLHWYQQKPGSSPKLWIYDTSNLASGVPVRFSGSGSGTSYSLTISSMEAEDAATYYCHQYHRSPYTFGGGTKLEIK
notes: canine constant regions not specified; also called m224G3 Chim

Tests used:
Canine IL-31RA ECD-10His [1] = target: T1, Canine IL-31RA ECD-10His; assay: BLI (Octet HTX), biotin-labeled canine IL-31RA on SA biosensors, 1:1 fit
Experimental: These constants reflect the binding affinity of the individual monoclonal antibodies for canine IL-31 RA.
(§1) All kinetics measurements were performed by Octet HTX using SA biosensors and Data Acquisition 12.0 software. A biotin-labeled antigen (canine IL-31RA) was loaded onto the pre-rehydrated SA biosensors for 120s at a concentration of 1 μg/mL. Next, the biosensors were placed into Octet Kinetics Buffer (PBS+0.02% Tween 20, 0.1% BSA) for the blocking phase for 120s. Then, for the association phase, antigen loaded biosensors were placed into 2-fold serial dilutions from 100 nM down to 3.13 nM of anti-IL-31RA monoclonal antibody in Octet Kinetics Buffer for 300s. The last well was buffer alone and that sensor was used for reference sensor subtraction. Finally, the biosensors were placed into Octet Kinetics Buffer for the dissociation phase for 300s. Analysis was performed using Data Analysis 12.0 software and curves were fitted using a 1:1 binding model.

Canine IL-31RA ECD-10His [2] = target: T1, Canine IL-31RA ECD-10His; assay: ELISA on coated canine IL-31RA, anti-canine IgG Fc-HRP (Example 11), the unit is that of the x axis 'Ab Log Conc. (ng/mL)'
Experimental: 1. Coat 200 ng/well of IL-31RA on an immunoplate and incubate the plate at 4° C. overnight. [0257] 2. Wash the plate 3 times with phosphate buffered saline (PBS) containing 0.05% Tween 20 (PBST). […] 3. Block the plate with 0.5% bovine serum albumin (BSA) in PBS for 45-60 min at room temperature. [0259] 4. Wash the plate 3 times with PBST. [0260] 5. Three-fold dilute the caninized antibody in each column or row of dilution plate starting at 0.3 μg/mL. [0261] 6. Transfer the diluted caninized antibody into each column or row of the immunoplate, and incubate the plate for 45-60 min at room temperature. [0262] 7. Wash the plate 3 times with PBST. [0263] 8. Add 1:4000 diluted horseradish peroxidase labeled anti-canine IgG Fc into each well of the plate, and then incubate the plate for 45-60 min at room temperature. [0264] 9. Wash the plate 3 times with PBST. [0265] 10. Add 3,3′,5,5′-tetramethylbenzidine (TMB) Substrate into each well of the plate, and incubate the plate for 10 to 15 min at room temperature to develop the color. [0266] 11. Add 100 μL 1.5 M phosphoric acid into each well to stop the reaction. Read plate at 450 nm with 540 nm reference wavelength.
As depicted in FIGS. 7A-7E, the caninized antibodies were tested for their reactivity to canine IL-31RA.

Canine IL-31RA ECD-10His [3] = target: T1, Canine IL-31RA ECD-10His; assay: BLI (Octet), biotin-labeled canine IL-31RA on SA biosensors
Experimental: as §1
Two of the top blocking antibodies: 51F8 and 218D9, had KDs of about 0.2 nM and about 0.07 nM respectively (see, Table 5B below).

Binder	Kd (Canine IL-31RA ECD-10His [1])	koff (Canine IL-31RA ECD-10His [1])	kon (Canine IL-31RA ECD-10His [1])	EC50 (Canine IL-31RA ECD-10His [2])	Kd (Canine IL-31RA ECD-10His [3])	koff (Canine IL-31RA ECD-10His [3])	kon (Canine IL-31RA ECD-10His [3])
B1	0.196 nM	9.05e-05 s⁻¹	463000 M⁻¹ s⁻¹				
B2	0.272 nM	0.000154 s⁻¹	568000 M⁻¹ s⁻¹				
B3				0.581 ng/mL			
B4				16.9 ng/mL	2.67 nM	0.00114 s⁻¹	428000 M⁻¹ s⁻¹
B5				8.31 ng/mL	1.01 nM	0.000448 s⁻¹	445000 M⁻¹ s⁻¹
B6				25 ng/mL	3.99 nM	0.0016 s⁻¹	401000 M⁻¹ s⁻¹
B7				0.383 ng/mL			
